Data from patent US20160130340A1 (ALDERBIO, published 2016).
Each block holds one binder with its values, some of them ahead of it.

Key:
Human IL-6 [1] = biological target: T1, Human IL-6 (human, UniProt P05231 30-212); assay: Octet bio-layer interferometry; antibody captured on anti-human IgG Fc sensor, then IL-6, then soluble IL-6R1, then gp130 in the presence of IL-6R1; blocked ligands: IL-6R1 and gp130
T1 construct: also called huIL-6; Interleukin-6
Procedure: (§1) To determine the antibody mechanism of action, mechanistic studies were performed using bio-layer interferometry with an Octet QK instrument (ForteBio; Menlo Park, Calif.). Studies were performed in two different configurations. […] Binding is monitored as an increase in signal.
(§2) In the second orientation, the antibody was bound to a biosensor coated with an anti-human IgG1 Fc-specific reagent (ForteBio part number 18-5001). […] All studies were performed in a 200 μL final volume, at 30° C. and 1000 rpm. For these studies, all proteins were diluted using ForteBio's sample diluent buffer (part number 18-5028).

Human IL-6 [2] = biological target: T1, Human IL-6; assay: Octet bio-layer interferometry; biotinylated IL-6 on streptavidin sensor, then antibody or buffer, then soluble IL-6R1, then gp130 in the presence of IL-6R1; blocked ligand: gp130
Procedure: as §1
The IL-6 bound to the sensor was then incubated either with the antibody in question or diluent solution alone.

Mouse IL-6 [3] = biological target: T2, Mouse IL-6 (mouse, UniProt P08505 25-211); assay: cell-based or functional assay
T2 sequence (looked up): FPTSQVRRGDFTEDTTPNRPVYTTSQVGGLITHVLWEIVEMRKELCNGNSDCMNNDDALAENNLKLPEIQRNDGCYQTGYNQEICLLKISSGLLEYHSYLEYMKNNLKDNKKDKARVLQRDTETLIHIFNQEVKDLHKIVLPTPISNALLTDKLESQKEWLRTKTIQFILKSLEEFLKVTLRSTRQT

Cynomolgus monkey IL-6 [4] = biological target: T3, Cynomolgus monkey IL-6 (cynomolgus monkey, UniProt P79341 28-212, limits assumed); assay: cell-based or functional assay
T3 sequence (looked up): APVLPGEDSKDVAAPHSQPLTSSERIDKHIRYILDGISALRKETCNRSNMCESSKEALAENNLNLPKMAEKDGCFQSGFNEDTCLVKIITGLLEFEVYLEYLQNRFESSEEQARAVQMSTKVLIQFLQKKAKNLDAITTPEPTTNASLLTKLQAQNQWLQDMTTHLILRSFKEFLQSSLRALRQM

Human IL-6 [5] = biological target: T1, Human IL-6; assay: cell-based or functional assay
Rat IL-6 [6] = biological target: T4, Rat IL-6 (rat, UniProt P20607 25-211); assay: cell-based or functional assay
T4 sequence (looked up): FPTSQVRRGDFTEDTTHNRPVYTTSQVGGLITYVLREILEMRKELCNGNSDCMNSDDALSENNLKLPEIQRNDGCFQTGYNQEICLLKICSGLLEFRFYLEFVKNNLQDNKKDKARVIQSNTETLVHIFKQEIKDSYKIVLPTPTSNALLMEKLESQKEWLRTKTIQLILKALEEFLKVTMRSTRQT

Mouse IL-6 [7] = biological target: T2, Mouse IL-6; assay: surface plasmon resonance, 25 C, averaged constants
Cynomolgus monkey IL-6 [8] = biological target: T3, Cynomolgus monkey IL-6; assay: as above
Human IL-6 [9] = biological target: T1, Human IL-6; assay: as above
Rat IL-6 [10] = biological target: T4, Rat IL-6; assay: as above
Human IL-6 [11] = biological target: T1, Human IL-6; assay: Octet bio-layer interferometry; antibody captured on anti-human IgG Fc sensor, then IL-6, then soluble IL-6R1, then gp130 in the presence of IL-6R1; ligand whose binding is slowed: gp130
Procedure: as §1, §2

binding result (Human IL-6 [2]): binds
B3: Ab3 (antibody, V domains shown)
VH: QSLEESGGRLVTPGTPLTLTCTASGFSLSVYYMNWVRQAPGKGLEWIGFITMSDNINYASWAKGRFTISKTSTTVDLKMTSPTTEDTATYFCARSRGWGTMGRLDLWGPGTLVTVSS
VL: AAVLTQTPSPVSAAVGGTVSISCQASQSVYDNNYLSWFQQKPGQPPKLLIYGASTLASGVPSRFVGSGSGTQFTLTITDVQCDDAATYYCAGVYDDDSDNAFGGGTEVVVKR
notes: Captured on an anti-human IgG1 Fc sensor

binding result (Human IL-6 [11]): binds
B5: Ab2 (antibody, V domains shown)
VH: QEQLKESGGRLVTPGTPLTLTCTASGFSLNDHAMGWVRQAPGKGLEYIGFINSGGSARYASWAEGRFTISRTSTTVDLKMTSLTTEDTATYFCVRGGAVWSIHSFDPWGPGTLVTVSS
VL: AYDMTQTPASVEVAVGGTVTINCQASETIYSWLSWYQQKPGQPPKLLIYQASDLASGVPSRFSGSGAGTEYTLTISGVQCDDAATYYCQQGYSGSNVDNVFGGGTEVVVKR
notes: The entry may carry a leader

Continued, binder first:

B1: Ab6 (antibody, V domains shown)
VH: QSVEESGGRLVTPGTPLTLTCTVSGIDLSDYAMSWVRQAPGKGLEWIGIIYAGSGSTWYASWAKGRFTISKTSTTVDLKITSPTTEDTATYFCARDGYDDYGDFDRLDLWGPGTLVTVSS
VL: AAVLTQTPSPVSVPVGGTVTIKCQSSQSVYNNFLSWYQQKPGQPPKLLIYQASKLASGVPDRFSGSGSGTQFTLTISGVQCDDAATYYCLGGYDDDADNAFGGGTEVVVKR
notes: as for B3
binding result (Human IL-6 [1]): binds

B2: Ab4 (antibody, V domains shown)
VH: QEQLKESGGGLVTPGGTLTLTCTASGFSLNAYYMNWVRQAPGKGLEWIGFITLNNNVAYANWAKGRFTFSKTSTTVDLKMTSPTPEDTATYFCARSRGWGAMGRLDLWGHGTLVTVSS
VL: DPVLTQTPSPVSAPVGGTVSISCQASQSVYENNYLSWFQQKPGQPPKLLIYGASTLDSGVPSRFKGSGSGTQFTLTITDVQCDDAATYYCAGVYDDDSDDAFGGGTEVVVKR
notes: as for B3
binding result (Human IL-6 [2]): binds

B4: Ab1 (antibody, human IgG1, kappa, N297A, V domains shown)
VH: EVQLVESGGGLVQPGGSLRLSCAASGFSLSNYYVTWVRQAPGKGLEWVGIIYGSDETAYATSAIGRFTISRDNSKNTLYLQMNSLRAEDTAVYYCARDDSSDWDAKFNLWGQGTLVTVSS
VL: AIQMTQSPSSLSASVGDRVTITCQASQSINNELSWYQQKPGKAPKLLIYRASTLASGVPSRFSGSGSGTDFTLTISSLQPDDFATYYCQQGYSLRNIDNAFGGGTKVEIKR
notes: Humanized from a rabbit antibody, IgG1 kappa, aglycosylated, produced in Pichia pastoris; also called clazakizumab; ALD518
IC50 (pM), T1165 cell proliferation stimulated by the species' IL-6 (Mouse IL-6 [3]): 1840 pM
IC50 (pM), T1165 cell proliferation stimulated by the species' IL-6 (Cynomolgus monkey IL-6 [4]): 12 pM
IC50 (pM), T1165 cell proliferation stimulated by the species' IL-6 (Human IL-6 [5]): 13 pM
IC50 (pM), T1165 cell proliferation stimulated by the species' IL-6 (Rat IL-6 [6]): 2060 pM
Kd (Mouse IL-6 [7]): 0.4 nM
koff (Mouse IL-6 [7]): 0.0004 s⁻¹
kon (Mouse IL-6 [7]): 1.1e+06 M⁻¹ s⁻¹
Kd (Cynomolgus monkey IL-6 [8]): 0.031 nM
koff (Cynomolgus monkey IL-6 [8]): 3e-06 s⁻¹
kon (Cynomolgus monkey IL-6 [8]): 96000 M⁻¹ s⁻¹
Kd (Human IL-6 [9]): 0.004 nM
koff (Human IL-6 [9]): 5e-07 s⁻¹
kon (Human IL-6 [9]): 160000 M⁻¹ s⁻¹
Kd (Rat IL-6 [10]): 1.4 nM
koff (Rat IL-6 [10]): 0.0022 s⁻¹
kon (Rat IL-6 [10]): 1.6e+06 M⁻¹ s⁻¹
